Assay results taken from the supplement of paper PMC5998384.

Assays:
[1] = test system: HeLa Kyoto; assay: solubility change mitosis vs G1/S (difference of NP-40 vs SDS log2 ratios) (log2 ratio difference); higher = more soluble in mitosis
[2] = test system: HeLa Kyoto; assay: thermal stability score vs G1/S (z-score of summed log2 fold changes over temperatures); higher = more thermally stable than in G1/S
[3] = test system: HeLa Kyoto; assay: solubility in G1/S (NP-40 vs SDS abundance) (log2 ratio); higher = more soluble; conditions: cell cycle stage: G1/S
[4] = test system: HeLa Kyoto; assay: melting temperature (median over replicates), in situ; higher = more thermally stable
[5] = cell cycle stage: early G1 (4.5 h after nocodazole release)
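Wherever melting temperature (median over replicates), in situ is given: HeLa Kyoto cells synchronized by double thymidine or nocodazole block, proteins quantified by TMT10plex mass spectrometry, three independent biological replicates.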
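Wherever solubility change mitosis vs G1/S (difference of NP-40 vs SDS log2 ratios) is given: synchronized HeLa Kyoto cells (double thymidine block for G1/S, nocodazole release for mitosis), protein amounts in NP-40 versus SDS lysates quantified by mass spectrometry, three biological replicates.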
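Wherever solubility in G1/S (NP-40 vs SDS abundance) is given: HeLa Kyoto cells arrested at G1/S by double thymidine block, proteins quantified by TMT10plex mass spectrometry in mild NP-40 versus SDS extracts, three biological replicates.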
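Wherever thermal stability score vs G1/S (z-score of summed log2 fold changes over temperatures) is given: synchronized HeLa Kyoto cells, proteins quantified by TMT10plex mass spectrometry, three biological replicates, mitosis taken 0.5 h after nocodazole release, G1/S directly after double thymidine block.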

| Sequence | solubility change mitosis (log2) [1] | thermal stability score [2, 5] | thermal stability score ([2]; cell cycle stage: mitosis) | solubility in G1/S (log2) [3] | melting temperature ([4]; cell cycle stage: G1/S) [°C] | melting temperature ([4]; cell cycle stage: mitosis) [°C] |
| --- | --- | --- | --- | --- | --- | --- |
| MADILSQSETLASQDLSGDFKKPALPVSPAARSKAPASSSSNPEEVQKEGPTALQDSNSGEPDIPPPQPDCGDFRSLQEEQSRPPTAVSSPGGPARAPPYQEPPWGGPATAPYSLETLKGGTILGTRSLKGTSYCLFGRLSGCDVCLEHPSVSRYHAVLQHRASGPDGECDSNGPGFYLYDLGSTHGTFLNKTRIPPRTYCRVHVGHVVRFGGSTRLFILQGPEEDREAESELTVTQLKELRKQQQILLEKKMLGEDSDEEEEMDTSERKINAGSQDDEMGCTWGMGEDAVEDDAEENPIVLEFQQEREAFYIKDPKKALQGFFDREGEELEYEFDEQGHSTWLCRVRLPVDDSTGKQLVAEAIHSGKKKEAMIQCSLEACRILDTLGLLRQEAVSRKRKAKNWEDEDFYDSDDDTFLDRTGLIEKKRLNRMKKAGKIDEKPETFESLVAKLNDAERELSEISERLKASSQVLSESPSQDSLDAFMSEMKSGSTLDGVSRKKLHLRTFELRKEQQRLKGLIKIVKPAEIPELKKTETQTTGAENKAKKLTLPLFGAMKGGSKFKLKTGTVGKLPPKRPELPPTLMRMKDEPEVEEEEEEEEEEEKEKEEHEKKKLEDGSLSRPQPEIEPEAAVQEMRPPTDLTHFKETQTHENMSQLSEEEQNKDYQDCSKTTSLCAGPSASKNEYEKSRGELKKKKTPGPGKLPPTLSSKYPEDDPDYCVWVPPEGQSGDGRTHLNDKYGY [SLC4A1AP] | -0.0506 | -0.0668 | 1.11 | 0.0907 | 50.1 | 51.7 |
| MGLLRGGLPCARAMARLGAVRSHYCALLLAAALAVCAFYYLGSGRETFSSATKRLKEARAGAPAAPSPPALELARGSVAPAPGAKAKSLEGGGAGPVDYHLLMMFTKAEHNAALQAKARVALRSLLRLAKFEAHEVLNLHFVSEEASREVAKGLLRELLPPAAGFKCKVIFHDVAVLTDKLFPIVEAMQKHFSAGLGTYYSDSIFFLSVAMHQIMPKEILQIIQLDLDLKFKTNIRELFEEFDSFLPGAIIGIAREMQPVYRHTFWQFRHENPQTRVGGPPPEGLPGFNSGVMLLNLEAMRQSPLYSRLLEPAQVQQLADKYHFRGHLGDQDFFTMIGMEHPKLFHVLDCTWNRQLCTWWRDHGYSDVFEAYFRCEGHVKIYHGNCNTPIPED [XXYLT1] | -0.0858 | -1.07 | -1.02 | -0.0927 | 54.9 | 54.7 |
| MDVGELLSYQPNRGTKRPRDDEEEEQKMRRKQTGTRERGRYREEEMTVVEEADDDKKRLLQIIDRDGEEEEEEEEPLDESSVKKMILTFEKRSYKNQELRIKFPDNPEKFMESELDLNDIIQEMHVVATMPDLYHLLVELNAVQSLLGLLGHDNTDVSIAVVDLLQELTDIDTLHESEEGAEVLIDALVDGQVVALLVQNLERLDESVKEEADGVHNTLAIVENMAEFRPEMCTEGAQQGLLQWLLKRLKAKMPFDANKLYCSEVLAILLQDNDENRELLGELDGIDVLLQQLSVFKRHNPSTAEEQEMMENLFDSLCSCLMLSSNRERFLKGEGLQLMNLMLREKKISRSSALKVLDHAMIGPEGTDNCHKFVDILGLRTIFPLFMKSPRKIKKVGTTEKEHEEHVCSILASLLRNLRGQQRTRLLNKFTENDSEKVDRLMELHFKYLGAMQVADKKIEGEKHDMVRRGEIIDNDTEEEFYLRRLDAGLFVLQHICYIMAEICNANVPQIRQRVHQILNMRGSSIKIVRHIIKEYAENIGDGRSPEFRENEQKRILGLLENF [CTNNBL1] | 0.207 | 3.96 | 7.66 | -0.0781 | 47.6 | 47.7 |
| MRLPDLRPWTSLLLVDAALLWLLQGPLGTLLPQGLPGLWLEGTLRLGGLWGLLKLRGLLGFVGTLLLPLCLATPLTVSLRALVAGASRAPPARVASAPWSWLLVGYGAAGLSWSLWAVLSPPGAQEKEQDQVNNKVLMWRLLKLSRPDLPLLVAAFFFLVLAVLGETLIPHYSGRVIDILGGDFDPHAFASAIFFMCLFSFGSSLSAGCRGGCFTYTMSRINLRIREQLFSSLLRQDLGFFQETKTGELNSRLSSDTTLMSNWLPLNANVLLRSLVKVVGLYGFMLSISPRLTLLSLLHMPFTIAAEKVYNTRHQEVLREIQDAVARAGQVVREAVGGLQTVRSFGAEEHEVCRYKEALEQCRQLYWRRDLERALYLLVRRVLHLGVQMLMLSCGLQQMQDGELTQGSLLSFMIYQESVGSYVQTLVYIYGDMLSNVGAAEKVFSYMDRQPNLPSPGTLAPTTLQGVVKFQDVSFAYPNRPDRPVLKGLTFTLRPGEVTALVGPNGSGKSTVAALLQNLYQPTGGQVLLDEKPISQYEHCYLHSQVVSVGQEPVLFSGSVRNNIAYGLQSCEDDKVMAAAQAAHADDFIQEMEHGIYTDVGEKGSQLAAGQKQRLAIARALVRDPRVLILDEATSALDVQCEQALQDWNSRGDRTVLVIAHRLQTVQRAHQILVLQEGKLQKLAQL [TAP2] | -0.195 | 0.266 | 0.39 | -0.259 | 49.8 | 50.4 |
| MAVVPLLLLGGLWSAVGASSLGVVTCGSVVKLLNTRHNVRLHSHDVRYGSGSGQQSVTGVTSVDDSNSYWRIRGKSATVCERGTPIKCGQPIRLTHVNTGRNLHSHHFTSPLSGNQEVSAFGEEGEGDYLDDWTVLCNGPYWVRDGEVRFKHSSTEVLLSVTGEQYGRPISGQKEVHGMAQPSQNNYWKAMEGIFMKPSELLKAEAHHAEL [SDF2] | -0.129 | 4.15 | 3.09 | 0.097 | 54.3 | 54.1 |
